Assay results reported in patent publication US20230256057A1.

Target: IL-7 receptor (human) (UniProt P16871)
Test: cell-based or functional assay

UniProt P16871, sequence (P16871 21-459, chain 1 of 2): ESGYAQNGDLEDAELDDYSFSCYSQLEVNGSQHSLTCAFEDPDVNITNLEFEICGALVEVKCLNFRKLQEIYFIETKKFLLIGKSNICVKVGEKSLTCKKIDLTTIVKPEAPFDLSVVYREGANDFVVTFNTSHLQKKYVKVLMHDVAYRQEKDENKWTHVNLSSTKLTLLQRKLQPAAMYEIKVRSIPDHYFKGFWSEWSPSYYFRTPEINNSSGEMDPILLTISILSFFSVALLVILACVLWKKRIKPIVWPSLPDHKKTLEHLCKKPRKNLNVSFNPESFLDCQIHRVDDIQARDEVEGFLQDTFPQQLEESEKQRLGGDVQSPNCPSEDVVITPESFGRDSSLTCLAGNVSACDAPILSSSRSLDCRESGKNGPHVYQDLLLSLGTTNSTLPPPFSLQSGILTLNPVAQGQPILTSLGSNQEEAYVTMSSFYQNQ
UniProt P16871, sequence (P31785 23-369, chain 2 of 2, further chain): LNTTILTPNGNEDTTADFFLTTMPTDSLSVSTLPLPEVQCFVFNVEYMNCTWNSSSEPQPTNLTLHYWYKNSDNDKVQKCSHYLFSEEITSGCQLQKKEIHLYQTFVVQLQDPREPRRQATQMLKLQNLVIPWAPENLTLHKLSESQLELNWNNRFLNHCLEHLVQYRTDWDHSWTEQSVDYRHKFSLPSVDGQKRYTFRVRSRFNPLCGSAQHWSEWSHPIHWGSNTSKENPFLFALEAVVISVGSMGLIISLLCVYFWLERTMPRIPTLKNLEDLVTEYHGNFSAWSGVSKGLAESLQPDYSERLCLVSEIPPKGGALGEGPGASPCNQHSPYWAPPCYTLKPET

## human interleukin-7 fused to human Fc sequence of IgG2 (hIL-7-Fc) (Fc fusion)
  pSTAT5 expression in CD3+ T cells of COVID19+ patients' whole blood, ratio to unstimulated condition; supernatant dilution 1/2.5: 6.5 fold
  pSTAT5 expression in CD3+ T cells of COVID19+ patients' whole blood, ratio to unstimulated condition; supernatant dilution 1/5: 5.7 fold
  pSTAT5 expression in CD3+ T cells of COVID19+ patients' whole blood, ratio to unstimulated condition; supernatant dilution 1/10: 4.9 fold
